From patent US20230087785A1, “Leucine-Rich Repeat Kinase 2 Allosteric Modulators” (VIB VZW, priority 2020, published 2023)

How the values were obtained:
LRRK2 (wild-type) = biological target: T1, LRRK2 (wild-type) (Homo sapiens, UniProt Q5S007, M2397T/R50H); assay: In vitro peptide phosphorylation (PhosphoSens kinase) assay; format: biochemical; conditions: 25 μM Nb; 10 μM AQT0615 peptide
T1 construct: Full-length human LRRK2 was expressed and purified based on previously developed protocols; SF tag (FLAG-tag + Twin-Strep-tag); made in house; host or cells: HEK 293T
T1 sequence (Q5S007 whole entry R50H/M2397T): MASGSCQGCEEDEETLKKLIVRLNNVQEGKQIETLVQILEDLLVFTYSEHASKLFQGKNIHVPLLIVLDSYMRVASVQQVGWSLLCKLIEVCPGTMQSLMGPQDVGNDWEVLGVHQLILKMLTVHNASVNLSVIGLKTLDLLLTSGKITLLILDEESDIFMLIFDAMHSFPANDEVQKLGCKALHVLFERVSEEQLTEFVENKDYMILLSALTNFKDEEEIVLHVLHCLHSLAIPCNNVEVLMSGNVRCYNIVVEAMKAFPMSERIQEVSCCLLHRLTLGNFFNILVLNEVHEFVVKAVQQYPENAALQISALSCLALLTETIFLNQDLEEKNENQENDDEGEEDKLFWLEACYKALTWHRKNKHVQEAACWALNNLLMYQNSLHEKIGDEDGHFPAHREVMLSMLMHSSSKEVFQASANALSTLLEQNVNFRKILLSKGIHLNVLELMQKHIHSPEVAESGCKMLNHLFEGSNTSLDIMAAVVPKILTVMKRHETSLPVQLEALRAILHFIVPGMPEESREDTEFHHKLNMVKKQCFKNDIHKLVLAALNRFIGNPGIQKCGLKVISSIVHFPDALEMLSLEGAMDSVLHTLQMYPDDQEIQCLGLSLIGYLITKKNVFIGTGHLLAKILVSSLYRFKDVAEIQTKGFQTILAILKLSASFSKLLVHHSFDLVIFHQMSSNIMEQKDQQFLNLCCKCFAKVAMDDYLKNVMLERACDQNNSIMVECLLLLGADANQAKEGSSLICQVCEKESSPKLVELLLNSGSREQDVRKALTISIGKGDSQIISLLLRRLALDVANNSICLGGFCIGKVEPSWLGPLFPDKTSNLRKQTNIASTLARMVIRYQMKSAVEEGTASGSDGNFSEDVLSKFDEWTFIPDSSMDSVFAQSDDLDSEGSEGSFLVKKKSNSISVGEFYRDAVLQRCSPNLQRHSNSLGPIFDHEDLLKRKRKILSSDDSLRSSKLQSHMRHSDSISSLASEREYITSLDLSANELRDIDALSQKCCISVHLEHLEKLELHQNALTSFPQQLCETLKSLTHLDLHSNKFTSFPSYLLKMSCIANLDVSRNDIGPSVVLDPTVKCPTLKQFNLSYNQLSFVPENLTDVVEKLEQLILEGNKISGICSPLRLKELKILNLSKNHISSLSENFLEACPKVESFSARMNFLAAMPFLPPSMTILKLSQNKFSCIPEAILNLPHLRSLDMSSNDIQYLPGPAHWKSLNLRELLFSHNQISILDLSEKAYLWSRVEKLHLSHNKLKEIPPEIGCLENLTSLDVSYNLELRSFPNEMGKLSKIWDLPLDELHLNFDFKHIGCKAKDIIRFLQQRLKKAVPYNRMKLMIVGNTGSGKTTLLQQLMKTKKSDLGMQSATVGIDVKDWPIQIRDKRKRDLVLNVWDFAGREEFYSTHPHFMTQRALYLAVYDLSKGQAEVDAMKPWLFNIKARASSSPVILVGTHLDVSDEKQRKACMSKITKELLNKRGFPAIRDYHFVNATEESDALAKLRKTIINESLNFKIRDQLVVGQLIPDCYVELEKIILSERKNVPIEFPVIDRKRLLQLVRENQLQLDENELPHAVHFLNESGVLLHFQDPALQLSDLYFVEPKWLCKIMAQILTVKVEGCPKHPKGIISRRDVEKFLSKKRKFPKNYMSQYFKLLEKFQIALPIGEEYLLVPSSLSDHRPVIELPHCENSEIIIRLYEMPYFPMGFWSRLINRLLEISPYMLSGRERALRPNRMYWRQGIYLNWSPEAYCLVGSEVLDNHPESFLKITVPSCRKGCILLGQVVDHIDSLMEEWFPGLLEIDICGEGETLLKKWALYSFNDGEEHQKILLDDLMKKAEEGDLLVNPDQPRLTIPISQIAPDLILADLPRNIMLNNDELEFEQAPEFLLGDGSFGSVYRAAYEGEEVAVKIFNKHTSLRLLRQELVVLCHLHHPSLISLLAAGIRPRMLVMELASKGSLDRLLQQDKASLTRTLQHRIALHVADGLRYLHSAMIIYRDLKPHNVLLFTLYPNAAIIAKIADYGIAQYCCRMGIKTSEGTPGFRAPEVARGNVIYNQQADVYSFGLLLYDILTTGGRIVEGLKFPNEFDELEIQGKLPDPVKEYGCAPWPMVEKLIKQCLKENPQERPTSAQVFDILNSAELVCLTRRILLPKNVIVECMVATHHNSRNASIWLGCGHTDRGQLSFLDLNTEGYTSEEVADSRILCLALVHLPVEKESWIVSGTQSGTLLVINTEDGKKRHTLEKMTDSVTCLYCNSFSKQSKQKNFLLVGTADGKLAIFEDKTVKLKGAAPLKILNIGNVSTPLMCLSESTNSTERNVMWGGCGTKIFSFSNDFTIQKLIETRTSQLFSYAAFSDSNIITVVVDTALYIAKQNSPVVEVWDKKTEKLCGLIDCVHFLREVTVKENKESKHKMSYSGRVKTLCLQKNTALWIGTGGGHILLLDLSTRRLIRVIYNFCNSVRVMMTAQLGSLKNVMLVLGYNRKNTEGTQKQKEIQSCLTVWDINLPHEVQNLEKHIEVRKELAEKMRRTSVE
Protocol: FIGS. 4A and 4B. Modulation of in vitro kinase activity by LRRK2-targeting Nbs. (FIG. 4A) Effect of selected LRRK2-targeting Nbs on LRRK2 kinase activity measured using the fluorescence-based PhosphoSens® Protein Kinase Assay, using the LRRK2-optimized AQT0615 peptide as substrate at a fixed concentration of 10 μM, and in the presence of 1 mM or 0.1 mM ATP, respectively. The influence of the different Nbs at a concentration of 25 μM on the relative kinase activity compared to the control where no Nb was added (“No Nb”) is plotted. […] (FIG. 4B) The influence of the different Nbs (25 μM) on the relative kinase activity compared to the “No-Nb” control is plotted, either in presence of 500 μM GDP (top) or 500 μM GTPγS (bottom). […] Each bar reflects the average (±SD) of three independent measurements.
Hereto, we used the fluorescence-based PhosphoSens® Protein Kinase Assay (AssayQuant Technologies Inc.), using the LRRK2-optimized AQT0615 peptide as substrate at a fixed concentration of 10 μM. The increase in fluorescence (Δexc:360 nm; Δemm:485 nm) due to LRRK2-catalyzed peptide phosphorylation was measured continuously in time under initial rate conditions at an ATP concentration of either 0.1 and 1 mM. Subsequently, the 10 Nbs were added at a final concentration of 25 μM and the effect on the initial rate was determined in triplicate (FIG. 4A). Two negative controls, where either no Nb or an irrelevant Nb was added, were also included. […] These experiments were performed in addition with LRRK2 either in the presence of a large excess (500 μM) of GDP or GTPγS (FIG. 4B), but no significant influence of the nucleotide on the inhibition profile was observed.
The Nb concentration was varied from 200 or 150 μM to 0.006 μM in a two-fold serial dilution, while keeping the peptide and ATP substrate concentrations constant at 10 μM and 1 mM, respectively (FIG. 11A-C).
The influence of the purified Nbs on LRRK2 kinase activity was determined using the PhosphoSens® Protein Kinase Assay (AssayQuant Technologies Inc.) using the optimized LRRK2 AQT0615 peptide as substrate and according to the manufacturers' instructions. The continuous kinase assay was performed in a total volume of 50 μL in a black half area 96 well plate. Each reaction mixture contained 10 μM AQT0615 peptide substrate/probe, either 0.1 mM or 1 mM ATP and 500 μM of either GDP, or GTPγS in a buffer consisting of 50 mM HEPES pH 7.5, 0.1% Brij-35, 50 mM NaCl and 10 mM MgCl2. The reaction was initiated by addition of a final concentration of 80 nM of LRRK2 either in absence or presence of 25 μM Nb. Prior to addition, LRRK2 and the Nbs were pre-incubated for 30 minutes on ice. The LRRK2-catalyzed phosphorylation of the peptide substrate/probe is followed continuously at 30° C. in a plate reader with excitation and emission wavelength of 360 nm and 485 nm respectively. Time traces were corrected by subtracting the “no LRRK2” control. The initial rates were determined from the slope of the linear portion of the curve.
To determine IC50 values the Nb concentration was varied from 150 μM to 0.006 μM using a two-fold serial dilution. In these assays a final LRRK2 concentration of 150 nM and an ATP concentration of 1 mM was used. The relative LRRK2 activity (compared to the “no nanobody” control) was plotted against the logarithmic Nb concentration and fitted on a three-parameter log(inhibitor) vs response equation in the GraphPad Prism software. All time traces were collected in triplicate.

LRRK2 = biological target: T2, LRRK2 (Homo sapiens, UniProt Q5S007, M2397T/R50H); assay: Competition ELISA titration; format: binding; conditions: Nb 450 nM to 0.2 nM; for shift of the Nb ELISA titration curve in presence of AdoCbl: 250 μM; for shift of the Nb ELISA titration curve in presence of MLi-2: large excess of MLi-2 (1 μM)
T2 construct: Full-length human LRRK2 was expressed and purified based on previously developed protocols; SF tag (FLAG-tag + Twin-Strep-tag); made in house; host or cells: HEK 293T
T2 sequence (Q5S007 whole entry R50H/M2397T): as above
From the text: LRRK2 was coated in the wells of the ELISA plate and the ELISA signal for a dilution series of the respective Nbs (detected via their C-terminal EPEA-tag) is plotted in function of the Nb concentration. […] A “no antigen control”, where no LRRK2 was coated on the bottom of the well, is also included.
Most currently described LRRK2 inhibitors bind directly to the ATP-binding pocket of the kinase domain. […] Two of the in vitro kinase activity inhibiting Nbs described herein (Nb 1 and Nb6) bind LRRK2 predominantly via interactions with the COR-B domain, thus proposing a novel mechanism of action, and thereby excluding a mechanism of inhibition similar to these previously described LRRK2 kinase inhibitors that all directly interact with the kinase domain. […] To verify and confirm that Nb1, Nb6 and Nb23 bind LRRK2 in a different mode than any known small molecule kinase inhibitor, thus also different that the reported vitamin B12 forms, a competition ELISA titration experiment was performed (FIGS. 17A-17C). In this experimental setup, the ELISA experiment was performed using a fixed concentration of LRRK2 coated on the bottom of the ELISA plate, and using a dilution series of either of the three Nbs ranging from 450 nM to 0.2 nM. Detection of Nb binding in ELISA is performed using their C-terminal EPEA-tag, resulting in a dose-response titration curve reflecting an apparent affinity of the Nbs. […] Additionally, as a positive control, a repetition of the setup was performed in presence of an excess (9 μm) of the corresponding untagged Nb.
The ELISA experiment was performed similar as described above, using a fixed concentration of LRRK2 coated on the bottom of the ELISA plate, and using a 1:4 dilution series of Nb1, Nb6 or Nb23 ranging from 450 nM to 0.2 nM. Detection of Nb binding was performed using the C-terminal EPEA tag of the Nbs as described before, resulting in a dose response titration curve reflecting an apparent affinity of the Nbs. […] A “no antigen control”, where no LRRK2 was coated on the bottom of the well, was also included. The absorbance signal (A405 nm) was read out at different time points and the A405 nm at 0.5 h (Nb6 and Nb23) or 10 h (Nb1) was plotted in function of the Nb concentration.

Row | Molecule | shift of the Nb ELISA titration curve in presence of AdoCbl (LRRK2) | shift of the Nb ELISA titration curve in presence of MLi-2 (LRRK2) | effect on in vitro LRRK2 kinase activity (LRRK2 (wild-type))
1 | Nb42: LRRK2-specific Nanobody, SEQ ID NO: 6 (protein, Nanobody CA14259) VHH: MAQVQLVESGGGLVQAGGSLRLSCAASGDVNYAVGWFRQAPRKEREFVAAINWRGDNTDYTDSVKGRFTISRDNAKNTVYLQMNSLKPEDTAVYYCAAKSAPYWYSDIAPDYWGQGTQVTVSS | – | – | no inhibitory effect could be observed in vitro
2 | Nb22: LRRK2-specific Nanobody, SEQ ID NO: 9 (protein, Nanobody CA13611) VHH: MAQVQLVESGGGLVQAGGSLRLSCAASGRTFSSYTMGWFRQAPGKEREFVAAIRWSGGSTYYADSVKGRFTISRDNAKNTVYLQMNSLKPEDTAVYYCAASDRGGFIATSGGWMDYWGKGTQVTVSS | – | – | activates the kinase activity of LRRK2 in vitro

Continued, in another order:

Row | shift of the Nb ELISA titration curve in presence of AdoCbl (LRRK2) | shift of the Nb ELISA titration curve in presence of MLi-2 (LRRK2) | Molecule | effect on in vitro LRRK2 kinase activity (LRRK2 (wild-type))
3 | no rightward shift is observed | no rightward shift is observed | Nb1: LRRK2-specific Nanobody, SEQ ID NO: 1 (protein, Nanobody CA12610) VHH: MAQVQLVESGGGLVQAGGSLRLSCVASGRIFSGNAMGWYRQAPGRQRELVAGITNGGYTNYRQFVKGRFTISRDNAKRTVYLQMNSLKPEDTAVYYCNALDREARQVDYWGQGTQVTVSS | very clear significant inhibiting effect
4 | no rightward shift is observed | no rightward shift is observed | Nb23: LRRK2-specific Nanobody, SEQ ID NO: 3 (protein, Nanobody CA13612) VHH: MAQVQLVESGGGLVQAGGSLRLSCAASGRTFSRYTMGWFRQAPGKDREFVARITTSGAVTTYADSAKGRFTISRDNAKNTVYLQMNTLKPEDTAVYYCAAGQGQLSSQSRFVDYWGQGTQVTVSS | (to a lesser extent) Nb23 (CA13612), have a very clear significant inhibiting effect
5 | no rightward shift is observed | no rightward shift is observed | Nb6: LRRK2-specific Nanobody, SEQ ID NO: 2 (protein, Nanobody CA12618) VHH: MAQVQLVESGGGLVQAGGSLRLSCAASGSIFSPTAMGWYRQAPGKERELVAGITSGGYTNYRNFARGRFTISRDNAKKTVYLQMNSLNPEDTAVYYCNTLTISWSWGQGTQVTVSS | very clear significant inhibiting effect
